# Measured values taken from patent publication EP4703380A1, “INTEGRIN-TARGETING ANTIBODIES AND USE THEREOF” (NIO BIOPHARMACEUTICALS. INC., priority 2023, dated 2024).
# Where “and” joins values, the source holds several entries; their conditions need not be identical. Equal values may be shown once.
# B1: PS4-vcMMAE: PS4 WT maxibody conjugated with vcMMAE (monomethyl auristatin E); average DAR 4.09 (conjugate)
# VH: QVQLVQSGGGLVNPGGSLRLSCAASGFPFSDHYMSWIRQAPGKGLEWVSYISNRGYTIHYADFVKGRFTISRDNAENTLYLQMNSLRAEDTAVYYCARDRGTIDAFDLWGQGTMVTVSS
# VL: QSALTQPASVSGSPGQSITIPCSGTSDDIGRYNYVSWYQQHPGKAPKLLIYDVTRRSSGVSSHFSGSKSGSTASLIISGLQADDEADYFCSSFTNNRTVVFGGGTKLTVL
# modifications: left off: things letters cannot carry; another chain or arm of the molecule; a dimerising Fc or GST; small tags and cut ends
# Legend:
# Panc-1 [1] = test: AlamarBlue cell growth inhibition, Panc-1; assay type: cell-based; conditions: Pancreatic, Panc-1, 4 days
# Description: (§1) First, an appropriate number of cells (3x10^3 to 1x10^4 cells) for each cancer cell line were dispensed into each well of a 96-well plate and cultured for 24 hours at 37°C, 5% CO2, and then the medium was replaced with fresh growth medium. Then, sequentially diluted antibody-drug conjugates were added to each well, and the cells were cultured for 4 days under 37°C, 5% CO2 conditions, and then treated with AlamarBlue (Invitrogen). The fluorescence values were measured at Ex530 and Em590 every 2, 4, and 6 hours (PerkinElmer Victor x4). The obtained fluorescence values were analyzed with Prism4 (GraphPad) to determine the EC50 value. Each experiment was repeated three times.
# BT20 = test: AlamarBlue cell growth inhibition, BT20; assay type: cell-based; conditions: TNBC, BT20, 4 days
# Description: as §1
# MDA-MB-231 ITGA KO = test: AlamarBlue cell growth inhibition, ITGA3 knockout negative control line; assay type: cell-based; conditions: breast cancer cell line with ITGA3 subunit knocked out
# Description: MDA-MB-231 cells with ITGA3 gene knockout were generated as follows. sgRNAs targeting exon 17 ([…]) of the ITGA3 gene were subcloned using the CRISPR-Cas9-2A-Puro V2.0 (Addgene) system. MDA-MB-231 cells were transfected with CRISPR-Cas9/sgRNA and cultured at 37°C, 5% CO2 for 72 hours. Afterwards, puromycin, the selection marker for the CRISPR-Cas9 vector, was added at a concentration of 250 ng/mL and selected for 18 days. Then, the target protein knockout efficiency was measured using flow cytometry (FACS calibur, FACS Aria, BD Biosciences), and knockout cells were isolated. MDA-MB-231 cells with ITGA3 knockout, i.e., MDA-MB-231/ITGA3 KO cell lines, were analyzed by flow cytometry using 3 µg/mL PS4 antibody and anti-human Fc-gamma specific Alexa Fluor-647 (1:800 dilution, Jackson ImmunoResearch Laboratories Inc.). In addition, MDA-MB-231/ITGA3 KO cell lysate (30 µg) was separated by SDS-PAGE and analyzed by Western blot using anti-ITGA3 (Antibodies-online) and anti-mouse Fc-gamma specific-HRP. Sample loading was compared using anti-beta-actin.
# First, an appropriate number of cells (3x10^3 to 1x10^4 cells) for each cancer cell line were dispensed into each well of a 96-well plate and cultured for 24 hours at 37°C, 5% CO2, and then the medium was replaced with fresh growth medium. […] The fluorescence values were measured at Ex530 and Em590 every 2, 4, and 6 hours (PerkinElmer Victor x4). […]
# SW780 = test: AlamarBlue cell growth inhibition, SW780; assay type: cell-based; conditions: bladder, SW780, 4 days
# Description: as §1
# PANC-1 [2] = test: Pancreatic cancer xenograft efficacy; assay type: in vivo, mice; conditions: PANC-1 xenograft, NOD/SCID
# Description: PANC-1 (3 × 10^6) cancer cells were subcutaneously injected into NOD/SCID (female 5-week-old) mice. When the tumor volume reached […], the PS4-vcMMAE conjugate was intraperitoneally injected at 5 mg/kg or 10 mg/kg once every 5 days for a total of 3 times. The control group was treated with PBS, and the efficacy was evaluated with 3-4 mice per group. After the experiment, the tumors were excised, and the size of the tumor tissues in each experimental group was compared. All animal experiments were performed in accordance with the protocol approved by the Institutional Animal Care and Use Committee (IACUC) of Kangwon National University (KW-210728-3).
# SCaBER = test: AlamarBlue cell growth inhibition, SCaBER; assay type: cell-based; conditions: bladder, 4 days
# Description: as §1
# MDA-MB-468 = test: AlamarBlue cell growth inhibition, MDA-MB-468; assay type: cell-based; conditions: TNBC, MDA-MB-468, 4 days
# Description: as §1
# MDA-MB-453 = test: AlamarBlue cell growth inhibition, MDA-MB-453; assay type: cell-based; conditions: TNBC, MDA-MB-453, 4 days
# Description: as §1
# Aspc-1 = test: AlamarBlue cell growth inhibition, Aspc-1; assay type: cell-based; conditions: Pancreatic, Aspc-1, 4 days
# Description: as §1
# UMUC-3 = test: AlamarBlue cell growth inhibition, UMUC-3; assay type: cell-based; conditions: bladder, UMUC-3, 4 days
# Description: as §1
# A549 = test: AlamarBlue cell growth inhibition, A549; assay type: cell-based; conditions: Lung, A549, 4 days
# Description: as §1
# MDA-MB-231 = test: AlamarBlue cell growth inhibition, MDA-MB-231; assay type: cell-based; conditions: TNBC, MDA-MB-231, 4 days
# Description: as §1
# MDA-MB-231 cells = test: Triple-negative breast cancer xenograft efficacy; assay type: in vivo, mice; conditions: MDA-MB-231 xenograft
# Description: Triple-negative breast cancer (TNBC) MDA-MB-231 cells (2x10^6 cells) were mixed with Matrigel at a 1:1 (v/v) ratio and injected subcutaneously into BALB/c nude or NOD/SCID mice (Nara Bio). When the tumor volume reached 100 mm^3, the PS4-vcMMAE antibody-drug conjugate was administered intraperitoneally at 5 mg/kg or 10 mg/kg once every 5 days for a total of 5 times. 2-3 mice were used in each group. All animal experiments were conducted in accordance with protocols approved by the Institutional Animal Care and Use Committee (IACUC) of Kangwon National University (KW-210728-3).
# CoCaB1 = test: AlamarBlue cell growth inhibition, CoCaB1; assay type: cell-based; conditions: bladder, CoCaB1, 4 days
# Description: as §1
# [3] = Real-time thermal stability (SYPRO Orange); assay type: physicochemical; conditions: 2 µM sample, 10.0°C to 95°C
# Description: The method and principle of the experiment were as follows. As the temperature increases, the folded protein denatures, exposing hydrophobic regions, which bind to the SYPRO Orange detection dye, resulting in fluorescence. The point at 1/2 RFUmax is designated as the melting point (Tm). 22.5 µL of the assay sample and 2.5 µL of 50x SYPRO stock solution were added to a 96-well PCR plate (VOLO Semi-Skirted PCR Plate) so that the final concentration of the sample used in the experiment was 2 µM, and the fluorescence was measured using Quantstudio Real-Time PCR (Thermo Fisher scientific) while increasing the temperature by 0.5°C per 10 s from 10.0°C to 95°C. Each sample was tested three times. The fluorescence value of the antibody buffer was set as the background and subtracted, and the value with the greatest slope in the […] of the fluorescence value (dTRFU) was analyzed as the Tm of the corresponding protein.
# MKN45 = test: AlamarBlue cell growth inhibition, MKN45; assay type: cell-based; conditions: Stomach, MKN45, 4 days
# Description: as §1
molecule,measurement,setting,value
B1,IC50,Panc-1 [1],2.7 ± 1.21 nM
same,Maximum (% inhibition),Panc-1 [1],73.78±2.18%
same,IC50,BT20,134 ± 43.4 nM
same,Maximum (% inhibition),BT20,79.6±11.3%
same,anticancer efficacy,MDA-MB-231 ITGA KO,no anticancer efficacy was observed
same,IC50,SW780,1.78 ± 1.05 nM
same,Maximum (% inhibition),SW780,90.43±2.32%
same,tumor size reduced,PANC-1 [2]; 10 mg/kg,at least 60%
same,tumor growth,"PANC-1 [2]; intraperitoneally 5 mg/kg or 10 mg/kg once every 5 days, 3 times, vs control group (PBS)",inhibited in a PS4-MMAE dose-dependent manner
same,IC50,SCaBER,1.88 ± 0.79 nM
same,Maximum (% inhibition),SCaBER,89.71±0.61%
same,Maximum (% inhibition),MDA-MB-468,89.88±2.5%
same,IC50,MDA-MB-453,9.79 nM and 18.8 nM
same,Maximum (% inhibition),MDA-MB-453,96.2±0.36% and 87.9±0.61%
same,Maximum (% inhibition),Aspc-1,51.78±25.44%
same,IC50,UMUC-3,2.1 ± 1.2 nM
same,Maximum (% inhibition),UMUC-3,90.75±4.02%
same,IC50,A549,5.22 ± 2.17 nM
same,Maximum (% inhibition),A549,77.32±1.02%
same,IC50,MDA-MB-231,0.77 ± 0.63 nM
same,Maximum (% inhibition),MDA-MB-231,77.97±2.03%
same,size and weight of the extracted tumor tissue reduced,"MDA-MB-231 cells; BALB/c nude or NOD/SCID mice, intraperitoneally 5 mg/kg or 10 mg/kg once every 5 days, 5 times, vs control group",approximately 55%
same,tumor size compared to the time of drug administration,"MDA-MB-231 cells; NOD/SCID, 10 mg/kg",no significant difference
same,tumor growth,"MDA-MB-231 cells; intraperitoneally 5 mg/kg or 10 mg/kg once every 5 days, 5 times, vs control group",inhibited in a PS4-MMAE dose-dependent manner
same,IC50,CoCaB1,2.21 ± 1.4 nM
same,Maximum (% inhibition),CoCaB1,95.48±2.44%
same,Tm,[3],64.67±0.24 °C
same,IC50,MKN45,14.1 ± 4.52 nM
same,Maximum (% inhibition),MKN45,55.65±6.45%
